Data taken from the supplement of paper PMC10126150.
± gives the standard deviation of the averaged measurements.

Tested on: ATP
Assay: switch fluorescence ratio, 500 uM ATP over buffer (Cy3 cluster intensity, sum of 5 cycles each) (fold (ratio)); higher = stronger signal-on switching upon ATP binding; sequences stand for … in TCGTCGGCAGCGTCAGATGTGTATAAGAGACAGTTTTTTTTTTTTTTTTTTTTTTTTT…TC
Settings: aptamer strand: ATP DNA aptamer (quencher-CACCTGGGGGAGTATTGCGGAGGAAGG + anchor), 100 nM annealed; ATP concentration: 500 uM
Method in brief: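 Imaging in selection buffer was followed by imaging after 15 min with 500 uM ATP at 22 °C, for Cy3-labelled switching-strand clusters annealed to 100 nM quencher-labelled ATP aptamer on a modified Illumina MiSeq flow-cell. Five of these buffer/ATP cycles ran, separated by NaOH stripping and re-annealing. The fluorescence ratio per cluster is summed target-cycle over summed buffer-cycle Cy3 intensity, averaged per switch-domain sequence; clusters outside 100-1000 RFU were removed.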
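Also: ATP exposure 15 min at 22 °C before imaging.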

| Sequence | switch fluorescence ratio |
| --- | --- |
| GGGGTGTGGG | 1 ± 0.018 |
| GGGGTTACAT | 0.9919 ± 0.0072 |
| GGGGTTAGGT | 1.01 ± 0.031 |
| GGGGTTCAGA | 0.9846 ± 0.0041 |
| GGGGTTCCTT | 1 ± 0.034 |
| GGGGTTCTAG | 0.999 ± 0.0042 |
| GGGGTTCTTA | 1.02 ± 0.091 |
| GGGGTTCTTT | 1.09 ± 0.14 |
| GGGGTTGGAC | 0.9851 ± 0.0016 |
| GGGGTTGGAG | 0.979 ± 0.022 |
| GGGGTTGTCG | 0.989 ± 0.1 |
| GGGGTTTATA | 0.997 ± 0.026 |
| GGGGTTTCGT | 1.01 ± 0.067 |
| GGGGTTTGAG | 1.001 ± 0.0057 |
| GGGGTTTTAG | 1.01 ± 0.018 |
| GGGTAAAAAA | 1.02 ± 0.045 |
| GGGTAAAGAT | 1.02 ± 0.021 |
| GGGTAAAGGG | 1 ± 0.045 |
| GGGTAAAGTT | 1.01 ± 0.027 |
| GGGTAAATCT | 1.04 ± 0.026 |
| GGGTAACCGA | 0.9832 ± 0.0019 |
| GGGTAACGGC | 1.01 ± 0.089 |
| GGGTAAGAAA | 0.9865 ± 0.0041 |

| Sequence | switch fluorescence ratio |
| --- | --- |
| GGGTAAGATC | 1.022 ± 0.0083 |
| GGGTAAGTTT | 1.007 ± 0.0044 |
| GGGTAATGGG | 0.982 ± 0.024 |
| GGGTAATTAC | 1.048 ± 0.0053 |
| GGGTAATTTG | 1 ± 0.03 |
| GGGTACCGTA | 0.959 ± 0.068 |
| GGGTACTGTA | 1.09 ± 0.041 |
| GGGTACTGTG | 0.971 ± 0.015 |
| GGGTACTTAG | 1.05 ± 0.041 |
| GGGTAGAAAG | 0.97 ± 0.013 |
| GGGTAGAATT | 1.03 ± 0.039 |
| GGGTAGCGGG | 1.01 ± 0.033 |
| GGGTAGGCAG | 1.18 ± 0.25 |
| GGGTAGGCGG | 0.941 ± 0.029 |
| GGGTAGGGGA | 1 ± 0.049 |
| GGGTAGGGGT | 1.02 ± 0.074 |
| GGGTAGGTG | 1.13 ± 0.039 |
| GGGTATAAGA | 0.9976 ± 0.0075 |
| GGGTATAGGA | 0.944 ± 0.033 |
| GGGTATAGTC | 1.02 ± 0.074 |
| GGGTATCGGG | 0.98857 ± 0.00067 |
| GGGTATCGTA | 1.01 ± 0.018 |
| GGGTATCTGT | 1.01 ± 0.032 |

| Sequence | switch fluorescence ratio |
| --- | --- |
| GGGTATGGCC | 1.01 ± 0.025 |
| GGGTATGGGT | 0.995 ± 0.043 |
| GGGTATGTAA | 1.01 ± 0.066 |
| GGGTATTCTG | 0.98 ± 0.053 |
| GGGTATTGCA | 0.996 ± 0.018 |
| GGGTATTGCG | 0.977 ± 0.083 |
| GGGTATTGTA | 0.999 ± 0.02 |
| GGGTCAAAGA | 0.9705 ± 0.0086 |
| GGGTCAAAGT | 1.01 ± 0.013 |
| GGGTCAATGG | 1.04 ± 0.031 |
| GGGTCAGAAA | 1.04 ± 0.11 |
| GGGTCAGGCT | 0.981 ± 0.027 |
| GGGTCATGGG | 0.989 ± 0.033 |
| GGGTCCAAAT | 1.02 ± 0.04 |
| GGGTCCAAGG | 1.03 ± 0.029 |
| GGGTCCCCGC | 1.12 ± 0.056 |
| GGGTCGCCTG | 0.992 ± 0.033 |
| GGGTCGTAGG | 1.002 ± 0.0011 |
| GGGTCTCCAT | 1.02 ± 0.03 |
| GGGTCTGGAG | 1 ± 0.034 |
| GGGTCTGGGG | 0.995 ± 0.022 |
| GGGTCTTCTC | 1.01 ± 0.053 |
| GGGTCTTGTG | 0.989 ± 0.022 |

| Sequence | switch fluorescence ratio |
| --- | --- |
| GGGTGAAATG | 0.994 ± 0.023 |
| GGGTGAACTT | 0.988 ± 0.033 |
| GGGTGACATT | 0.997 ± 0.094 |
| GGGTGAGAGG | 0.9944 ± 0.0075 |
| GGGTGAGGCA | 0.9988 ± 0.0086 |
| GGGTGATATT | 0.996 ± 0.026 |
| GGGTGATCGT | 0.997 ± 0.013 |
| GGGTGATGGC | 1.01 ± 0.013 |
| GGGTGCAAGC | 1.058 ± 0.0049 |
| GGGTGCATGC | 1.07 ± 0.084 |
| GGGTGCGGCT | 1.11 ± 0.14 |
| GGGTGCGGGC | 1.04 ± 0.098 |
| GGGTGGACAC | 0.947 ± 0.065 |
| GGGTGGAGTT | 0.9672 ± 0.0046 |
| GGGTGGATGA | 1.03 ± 0.042 |
| GGGTGGATTG | 0.983 ± 0.039 |
| GGGTGGGATG | 0.984 ± 0.017 |
| GGGTGGGCGG | 0.974 ± 0.022 |
| GGGTGGGCTC | 0.971 ± 0.026 |
| GGGTGGGGGT | 1.03 ± 0.018 |
| GGGTGGGTA | 1.03 ± 0.03 |
| GGGTGGGTTA | 1.01 ± 0.038 |
| GGGTGGTAAG | 0.997 ± 0.051 |

| Sequence | switch fluorescence ratio |
| --- | --- |
| GGGTGGTCTG | 1.01 ± 0.031 |
| GGGTGGTGGT | 0.981 ± 0.043 |
| GGGTGTCAGC | 1.02 ± 0.017 |
| GGGTGTGCGC | 1.0134 ± 5.8e-05 |
| GGGTGTGCGG | 0.972 ± 0.038 |
| GGGTGTGGG | 0.986 ± 0.05 |
| GGGTGTGTGG | 1 ± 0.017 |
| GGGTGTTAAC | 0.981 ± 0.057 |
| GGGTGTTAGT | 1 ± 0.016 |
| GGGTGTTCGG | 0.979 ± 0.017 |
| GGGTTAAGAT | 0.997 ± 0.0054 |
| GGGTTAAGTG | 1.02 ± 0.018 |
| GGGTTAGAGA | 0.9668 ± 0.0032 |
| GGGTTAGAGG | 0.9959 ± 0.0071 |
| GGGTTAGATC | 1.03 ± 0.039 |
| GGGTTAGCTT | 0.98 ± 0.031 |
| GGGTTAGTTG | 0.995 ± 0.046 |
| GGGTTATTTT | 0.999 ± 0.043 |
| GGGTTCGACA | 0.998 ± 0.019 |
| GGGTTCTAGT | 0.9972 ± 0.008 |
| GGGTTCTTAC | 0.999 ± 0.011 |
| GGGTTGAACG | 0.967 ± 0.03 |
| GGGTTGAGCG | 1.02 ± 0.012 |

| Sequence | switch fluorescence ratio |
| --- | --- |
| GGGTTGATTT | 0.958 ± 0.053 |
| GGGTTGCTTG | 0.981 ± 0.049 |
| GGGTTGCTTT | 1 ± 0.024 |
| GGGTTGGAGT | 0.9965 ± 0.0081 |
| GGGTTGGGAA | 0.988 ± 0.023 |
| GGGTTGGGTC | 0.996 ± 0.029 |
| GGGTTGTAGC | 0.9909 ± 0.0027 |
| GGGTTGTCGC | 1.01 ± 0.024 |
| GGGTTGTGAA | 0.994 ± 0.037 |
| GGGTTGTGGT | 1.01 ± 0.026 |
| GGGTTGTTCT | 0.9792 ± 0.0087 |
| GGGTTTAATA | 0.996 ± 0.034 |
| GGGTTTAGAT | 0.9854 ± 0.0059 |
| GGGTTTATCA | 1.03 ± 0.03 |
| GGGTTTATGC | 0.9921 ± 0.0067 |
| GGGTTTCAGG | 1.017 ± 0.0021 |
| GGGTTTCAGT | 0.9503 ± 0.0066 |
| GGGTTTCATG | 0.995 ± 0.024 |
| GGGTTTGAAT | 0.978 ± 0.032 |
| GGGTTTGAGG | 0.9806 ± 0.0072 |
| GGGTTTGCAC | 1.03 ± 0.026 |
| GGGTTTGCAT | 1.02 ± 0.034 |
| GGGTTTGCCT | 1.0216 ± 0.0002 |

| Sequence | switch fluorescence ratio |
| --- | --- |
| GGGTTTGGCG | 0.999 ± 0.2 |
| GGGTTTGTTG | 0.988 ± 0.026 |
| GGGTTTTAAG | 1 ± 0.021 |
| GGGTTTTACT | 0.991 ± 0.053 |
| GGGTTTTCTG | 0.945 ± 0.017 |
| GGGTTTTCTT | 0.961 ± 0.031 |
| GGGTTTTTCG | 0.994 ± 0.062 |
| GGTAAAAATT | 0.98453 ± 0.00014 |
| GGTAAAAGCT | 1.03 ± 0.057 |
| GGTAAAGGGT | 0.991 ± 0.016 |
| GGTAAAGGTA | 1 ± 0.029 |
| GGTAAATGTG | 1.03 ± 0.072 |
| GGTAACAGCT | 1.04 ± 0.051 |
| GGTAACAGTG | 1.07 ± 0.085 |
| GGTAAGACGT | 0.999 ± 0.038 |
| GGTAAGATAG | 1.01 ± 0.017 |
| GGTAAGGGGG | 0.99 ± 0.031 |
| GGTAATGCTT | 1 ± 0.05 |
| GGTAATTCTG | 0.9837 ± 0.0033 |
